Measured values taken from patent US20080194482A1, “Selective Apac2 Receptor Peptide Agonists” (priority 2005, published 2008).
Where a chain is given by its changes, count along the chain named. In names and notes the source's numbering stands. Square brackets hold non-standard residues; d marks the D form. Ends that are not written are not given here. * marks the point of attachment. Orn = NCCC[C@H](N)C(=O)O; Hexanoyl = CCCCCC(=O)*; Aib = CC(C)(N)C(=O)O

T1: rat VPAC1 receptor (rat, UniProt P30083 31-459)
T1 sequence (looked up): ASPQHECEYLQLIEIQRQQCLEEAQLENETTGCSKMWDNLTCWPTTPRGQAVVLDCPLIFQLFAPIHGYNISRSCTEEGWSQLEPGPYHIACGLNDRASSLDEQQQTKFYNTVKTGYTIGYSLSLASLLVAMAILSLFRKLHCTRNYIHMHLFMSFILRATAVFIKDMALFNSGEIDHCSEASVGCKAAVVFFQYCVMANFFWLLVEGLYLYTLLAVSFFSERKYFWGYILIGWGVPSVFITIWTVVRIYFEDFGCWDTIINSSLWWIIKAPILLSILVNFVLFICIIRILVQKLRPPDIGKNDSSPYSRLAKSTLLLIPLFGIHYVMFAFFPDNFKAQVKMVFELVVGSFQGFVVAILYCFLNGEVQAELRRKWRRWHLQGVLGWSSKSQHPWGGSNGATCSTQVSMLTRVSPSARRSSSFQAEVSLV

T2: rat VPAC2 receptor (rat, UniProt P35000 23-437)
T2 sequence (looked up): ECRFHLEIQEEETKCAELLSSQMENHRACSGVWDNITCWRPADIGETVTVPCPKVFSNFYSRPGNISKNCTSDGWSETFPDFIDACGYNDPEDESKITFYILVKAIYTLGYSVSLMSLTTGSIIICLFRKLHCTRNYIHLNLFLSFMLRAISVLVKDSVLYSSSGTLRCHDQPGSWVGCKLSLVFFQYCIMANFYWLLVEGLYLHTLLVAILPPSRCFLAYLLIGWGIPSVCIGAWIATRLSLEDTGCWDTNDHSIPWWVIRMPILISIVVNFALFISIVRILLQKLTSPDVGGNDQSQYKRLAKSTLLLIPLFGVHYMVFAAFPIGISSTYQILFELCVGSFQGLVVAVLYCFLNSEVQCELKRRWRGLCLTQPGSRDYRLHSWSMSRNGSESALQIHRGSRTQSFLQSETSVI

T3: human VPAC2 receptor (human, UniProt P41587 24-438)
T3 sequence (looked up): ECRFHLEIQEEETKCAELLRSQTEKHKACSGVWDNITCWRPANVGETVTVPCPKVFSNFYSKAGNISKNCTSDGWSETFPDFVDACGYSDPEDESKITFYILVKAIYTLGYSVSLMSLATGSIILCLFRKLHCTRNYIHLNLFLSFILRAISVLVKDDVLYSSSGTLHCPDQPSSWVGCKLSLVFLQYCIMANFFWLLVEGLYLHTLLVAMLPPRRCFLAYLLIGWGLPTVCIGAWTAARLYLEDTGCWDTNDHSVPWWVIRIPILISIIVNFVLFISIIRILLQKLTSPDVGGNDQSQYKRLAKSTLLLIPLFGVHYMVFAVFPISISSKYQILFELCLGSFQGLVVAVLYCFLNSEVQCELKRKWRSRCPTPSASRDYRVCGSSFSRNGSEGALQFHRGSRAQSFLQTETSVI

B1: VPAC2 receptor peptide agonist P418 (peptide)
peptide: HSDAVFTEQYTXLRXQLAAXXYLQSIXXGGPSSGAPPPS
modifications: N-terminal hexanoyl (C6); Tyr(OMe) at 10 and 22; Orn at 12, 21, 27 and 28; Aib at 15 and 20
B2: VPAC2 receptor peptide agonist P394 (peptide)
peptide: B1 peptide with E8D
modifications: N-terminal hexanoyl (C6); Tyr(OMe) at 10; Orn at 12, 21, 27 and 28; Aib at 15 and 20
B3: VPAC2 receptor peptide agonist P393 (peptide)
peptide: B1 peptide with D3E
modifications: N-terminal hexanoyl (C6); Tyr(OMe) at 10; Orn at 12, 21, 27 and 28; Aib at 15 and 20

Target: T1, rat VPAC1 receptor
Experiment: cell-based or functional assay

Row | Binder | Rat VPAC1 Receptor: DiscoveRx (EC50; nM), cAMP generation [nM]
1 | B1 | 7.76
2 | B2 | 0.48
3 | B3 | 16
4 | Hexanoyl-HSDAVFTDNYTQLR[Aib]QVAA[Aib]KYLQSI[Orn]N[Orn]GGPSSGAPPPS [VPAC2 receptor peptide agonist P368] | 20.9
5 | Hexanoyl-HSDAVFTDNYTFLR[Aib]QVAA[Aib]KYLQSI[Orn]N[Orn]GGPSSGAPPPS [VPAC2 receptor peptide agonist P369] | 130
6 | HSDAVFTDNYTRLRXQVAAXKYLQSIKXXGGPSSGAPPPS (N-terminal hexanoyl (C6); Aib at 15, 20 and 28; Orn at 29) [VPAC2 receptor peptide agonist P357] | 0.69
7 | Hexanoyl-HSDAVFTDSYT[Orn]LR[Aib]QVAA[Aib]KYLQSI[Orn]N[Orn]GGPSSGAPPPS [VPAC2 receptor peptide agonist P392] | 0.71
8 | HSDAVFTDNYTXLRXQVAAXSYLQSIXNXGGPSSGAPPPS (N-terminal hexanoyl (C6); Orn at 12, 27 and 29; Aib at 15 and 20) [VPAC2 receptor peptide agonist P386] | 4.34
9 | HSDAVFTDNYTXLRXQVAAXKSLQSIXNXGGPSSGAPPPS (N-terminal hexanoyl (C6); Orn at 12, 27 and 29; Aib at 15 and 20) [VPAC2 receptor peptide agonist P385] | 96.8
10 | HSDAVFTDNYTXLRXQSAAXKYLQSIXNXGGPSSGAPPPS (N-terminal hexanoyl (C6); Orn at 12, 27 and 29; Aib at 15 and 20) [VPAC2 receptor peptide agonist P389] | 4.4
11 | HSDAVFTDNYTXLRXQVAAXKYLQSSXNXGGPSSGAPPPS (N-terminal hexanoyl (C6); Orn at 12, 27 and 29; Aib at 15 and 20) [VPAC2 receptor peptide agonist P382] | 8.21
12 | Hexanoyl-HSDAVFTDNYT[Orn]SR[Aib]QVAA[Aib]KYLQSI[Orn]N[Orn]GGPSSGAPPPS [VPAC2 receptor peptide agonist P391] | 9.09

Target: T2, rat VPAC2 receptor
Experiment: cell-based or functional assay

Row | Binder | Rat VPAC2 Receptor: DiscoveRx (EC50; nM), cAMP generation [nM]
13 | B1 | 0.57
14 | B2 | 0.03
15 | B3 | 0.17
16 | Hexanoyl-HSDAVFTDNYTQLR[Aib]QVAA[Aib]KYLQSI[Orn]N[Orn]GGPSSGAPPPS [VPAC2 receptor peptide agonist P368] | 1.33
17 | Hexanoyl-HSDAVFTDNYTFLR[Aib]QVAA[Aib]KYLQSI[Orn]N[Orn]GGPSSGAPPPS [VPAC2 receptor peptide agonist P369] | 8.09
18 | HSDAVFTDNYTRLRXQVAAXKYLQSIKXXGGPSSGAPPPS (N-terminal hexanoyl (C6); Aib at 15, 20 and 28; Orn at 29) [VPAC2 receptor peptide agonist P357] | 0.07
19 | Hexanoyl-HSDAVFTDSYT[Orn]LR[Aib]QVAA[Aib]KYLQSI[Orn]N[Orn]GGPSSGAPPPS [VPAC2 receptor peptide agonist P392] | 0.08
20 | HSDAVFTDNYTXLRXQVAAXSYLQSIXNXGGPSSGAPPPS (N-terminal hexanoyl (C6); Orn at 12, 27 and 29; Aib at 15 and 20) [VPAC2 receptor peptide agonist P386] | 0.28
21 | HSDAVFTDNYTXLRXQVAAXKSLQSIXNXGGPSSGAPPPS (N-terminal hexanoyl (C6); Orn at 12, 27 and 29; Aib at 15 and 20) [VPAC2 receptor peptide agonist P385] | 28.8
22 | HSDAVFTDNYTXLRXQSAAXKYLQSIXNXGGPSSGAPPPS (N-terminal hexanoyl (C6); Orn at 12, 27 and 29; Aib at 15 and 20) [VPAC2 receptor peptide agonist P389] | 0.21
23 | HSDAVFTDNYTXLRXQVAAXKYLQSSXNXGGPSSGAPPPS (N-terminal hexanoyl (C6); Orn at 12, 27 and 29; Aib at 15 and 20) [VPAC2 receptor peptide agonist P382] | 0.37
24 | Hexanoyl-HSDAVFTDNYT[Orn]SR[Aib]QVAA[Aib]KYLQSI[Orn]N[Orn]GGPSSGAPPPS [VPAC2 receptor peptide agonist P391] | 0.5

Target: T3, human VPAC2 receptor
Experiment: cell-based or functional assay

Row | Binder | Human VPAC2 Receptor: Alpha Screen (EC50; nM), cAMP generation [nM]
25 | B1 | 3.11
26 | B2 | 0.11
27 | B3 | 0.31
28 | Hexanoyl-HSDAVFTDNYTQLR[Aib]QVAA[Aib]KYLQSI[Orn]N[Orn]GGPSSGAPPPS [VPAC2 receptor peptide agonist P368] | 1.09
29 | Hexanoyl-HSDAVFTDNYTFLR[Aib]QVAA[Aib]KYLQSI[Orn]N[Orn]GGPSSGAPPPS [VPAC2 receptor peptide agonist P369] | 10.5
30 | HSDAVFTDNYTRLRXQVAAXKYLQSIKXXGGPSSGAPPPS (N-terminal hexanoyl (C6); Aib at 15, 20 and 28; Orn at 29) [VPAC2 receptor peptide agonist P357] | 0.23
31 | Hexanoyl-HSDAVFTDSYT[Orn]LR[Aib]QVAA[Aib]KYLQSI[Orn]N[Orn]GGPSSGAPPPS [VPAC2 receptor peptide agonist P392] | 0.21
32 | HSDAVFTDNYTXLRXQVAAXSYLQSIXNXGGPSSGAPPPS (N-terminal hexanoyl (C6); Orn at 12, 27 and 29; Aib at 15 and 20) [VPAC2 receptor peptide agonist P386] | 0.65
33 | HSDAVFTDNYTXLRXQVAAXKSLQSIXNXGGPSSGAPPPS (N-terminal hexanoyl (C6); Orn at 12, 27 and 29; Aib at 15 and 20) [VPAC2 receptor peptide agonist P385] | 23.9
34 | HSDAVFTDNYTXLRXQSAAXKYLQSIXNXGGPSSGAPPPS (N-terminal hexanoyl (C6); Orn at 12, 27 and 29; Aib at 15 and 20) [VPAC2 receptor peptide agonist P389] | 0.16
35 | HSDAVFTDNYTXLRXQVAAXKYLQSSXNXGGPSSGAPPPS (N-terminal hexanoyl (C6); Orn at 12, 27 and 29; Aib at 15 and 20) [VPAC2 receptor peptide agonist P382] | 0.33
36 | Hexanoyl-HSDAVFTDNYT[Orn]SR[Aib]QVAA[Aib]KYLQSI[Orn]N[Orn]GGPSSGAPPPS [VPAC2 receptor peptide agonist P391] | 0.48

Target: T3, human VPAC2 receptor
Experiment: filter binding, human VPAC2 membranes, competition with 125I-VIP;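 note: assay plate incubated 1 h with shaking, then filtered, with filter-retained counts measured after adding scintillant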

Row | Binder | IC50 [nM]
37 | B1 | 8.96
38 | B2 | 0.41
39 | B3 | 0.74
40 | Hexanoyl-HSDAVFTDNYTQLR[Aib]QVAA[Aib]KYLQSI[Orn]N[Orn]GGPSSGAPPPS [VPAC2 receptor peptide agonist P368] | 28.6
41 | Hexanoyl-HSDAVFTDNYTFLR[Aib]QVAA[Aib]KYLQSI[Orn]N[Orn]GGPSSGAPPPS [VPAC2 receptor peptide agonist P369] | 37.3
42 | HSDAVFTDNYTRLRXQVAAXKYLQSIKXXGGPSSGAPPPS (N-terminal hexanoyl (C6); Aib at 15, 20 and 28; Orn at 29) [VPAC2 receptor peptide agonist P357] | 0.32
43 | Hexanoyl-HSDAVFTDSYT[Orn]LR[Aib]QVAA[Aib]KYLQSI[Orn]N[Orn]GGPSSGAPPPS [VPAC2 receptor peptide agonist P392] | 0.45
44 | HSDAVFTDNYTXLRXQVAAXSYLQSIXNXGGPSSGAPPPS (N-terminal hexanoyl (C6); Orn at 12, 27 and 29; Aib at 15 and 20) [VPAC2 receptor peptide agonist P386] | 5.92
45 | HSDAVFTDNYTXLRXQVAAXKSLQSIXNXGGPSSGAPPPS (N-terminal hexanoyl (C6); Orn at 12, 27 and 29; Aib at 15 and 20) [VPAC2 receptor peptide agonist P385] | 99.2
46 | HSDAVFTDNYTXLRXQSAAXKYLQSIXNXGGPSSGAPPPS (N-terminal hexanoyl (C6); Orn at 12, 27 and 29; Aib at 15 and 20) [VPAC2 receptor peptide agonist P389] | 0.82
47 | HSDAVFTDNYTXLRXQVAAXKYLQSSXNXGGPSSGAPPPS (N-terminal hexanoyl (C6); Orn at 12, 27 and 29; Aib at 15 and 20) [VPAC2 receptor peptide agonist P382] | 2.17
48 | Hexanoyl-HSDAVFTDNYT[Orn]SR[Aib]QVAA[Aib]KYLQSI[Orn]N[Orn]GGPSSGAPPPS [VPAC2 receptor peptide agonist P391] | 3.67
